First the molecules themselves.
B1: 12 (peptide)
peptide: mBz-LLIWIGSSKNPCILCG-NH2
modifications: thioether N-15
SMILES: CC[C@H](C)[C@@H]1NC(=O)[C@H](Cc2c[nH]c3ccccc23)NC(=O)[C@H]([C@@H](C)CC)NC(=O)[C@H](CC(C)C)NC(=O)[C@H](CC(C)C)NC(=O)c2cccc(c2)CSC[C@@H](C(=O)NCC(N)=O)NC(=O)[C@H](CC(C)C)NC(=O)[C@H]([C@@H](C)CC)NC(=O)[C@H](CS)NC(=O)[C@@H]2CCCN2C(=O)[C@H](CC(N)=O)NC(=O)[C@H](CCCCN)NC(=O)[C@H](CO)NC(=O)[C@H](CO)NC(=O)CNC1=O
notes: also called CP1-Y12C; cyclic peptide 12
B2: 13 (peptide)
peptide: mBz-LLIWIGSSKNPYCLCG-NH2
modifications: thioether N-15
SMILES: CC[C@H](C)[C@@H]1NC(=O)[C@H](Cc2c[nH]c3ccccc23)NC(=O)[C@H]([C@@H](C)CC)NC(=O)[C@H](CC(C)C)NC(=O)[C@H](CC(C)C)NC(=O)c2cccc(c2)CSC[C@@H](C(=O)NCC(N)=O)NC(=O)[C@H](CC(C)C)NC(=O)[C@H](CS)NC(=O)[C@H](Cc2ccc(O)cc2)NC(=O)[C@@H]2CCCN2C(=O)[C@H](CC(N)=O)NC(=O)[C@H](CCCCN)NC(=O)[C@H](CO)NC(=O)[C@H](CO)NC(=O)CNC1=O
notes: also called CP1-I13C; cyclic peptide 13
B3: 10 (peptide)
peptide: mBz-LLIWIGSSKCPYILCG-NH2
modifications: thioether N-15
SMILES: CC[C@H](C)[C@@H]1NC(=O)[C@H](Cc2c[nH]c3ccccc23)NC(=O)[C@H]([C@@H](C)CC)NC(=O)[C@H](CC(C)C)NC(=O)[C@H](CC(C)C)NC(=O)c2cccc(c2)CSC[C@@H](C(=O)NCC(N)=O)NC(=O)[C@H](CC(C)C)NC(=O)[C@H]([C@@H](C)CC)NC(=O)[C@H](Cc2ccc(O)cc2)NC(=O)[C@@H]2CCCN2C(=O)[C@H](CS)NC(=O)[C@H](CCCCN)NC(=O)[C@H](CO)NC(=O)[C@H](CO)NC(=O)CNC1=O
notes: also called CP1-N10C; cyclic peptide 10
B4: 11 (peptide)
peptide: mBz-LLIWIGSSKNCYILCG-NH2
modifications: thioether N-15
SMILES: CC[C@H](C)[C@@H]1NC(=O)[C@H](Cc2c[nH]c3ccccc23)NC(=O)[C@H]([C@@H](C)CC)NC(=O)[C@H](CC(C)C)NC(=O)[C@H](CC(C)C)NC(=O)c2cccc(c2)CSC[C@@H](C(=O)NCC(N)=O)NC(=O)[C@H](CC(C)C)NC(=O)[C@H]([C@@H](C)CC)NC(=O)[C@H](Cc2ccc(O)cc2)NC(=O)[C@H](CS)NC(=O)[C@H](CC(N)=O)NC(=O)[C@H](CCCCN)NC(=O)[C@H](CO)NC(=O)[C@H](CO)NC(=O)CNC1=O
notes: also called CP1-P11C; cyclic peptide 11
B5: 14 (peptide)
peptide: mBz-C(Acm)LIWIGSSKNPYILCG-NH2
modifications: thioether N-15
SMILES: CC[C@H](C)[C@@H]1NC(=O)[C@H](Cc2c[nH]c3ccccc23)NC(=O)[C@H]([C@@H](C)CC)NC(=O)[C@H](CC(C)C)NC(=O)[C@H](CSCNC(C)=O)NC(=O)c2cccc(c2)CSC[C@@H](C(=O)NCC(N)=O)NC(=O)[C@H](CC(C)C)NC(=O)[C@H]([C@@H](C)CC)NC(=O)[C@H](Cc2ccc(O)cc2)NC(=O)[C@@H]2CCCN2C(=O)[C@H](CC(N)=O)NC(=O)[C@H](CCCCN)NC(=O)[C@H](CO)NC(=O)[C@H](CO)NC(=O)CNC1=O
notes: Acm-protected precursor of cyclic peptide 2; also called CP1-L1C-Acm; cyclic peptide 14
B6: 9 (peptide)
peptide: mBz-LLIWIGSCKNPYILCG-NH2
modifications: thioether N-15
SMILES: CC[C@H](C)[C@@H]1NC(=O)[C@H](Cc2c[nH]c3ccccc23)NC(=O)[C@H]([C@@H](C)CC)NC(=O)[C@H](CC(C)C)NC(=O)[C@H](CC(C)C)NC(=O)c2cccc(c2)CSC[C@@H](C(=O)NCC(N)=O)NC(=O)[C@H](CC(C)C)NC(=O)[C@H]([C@@H](C)CC)NC(=O)[C@H](Cc2ccc(O)cc2)NC(=O)[C@@H]2CCCN2C(=O)[C@H](CC(N)=O)NC(=O)[C@H](CCCCN)NC(=O)[C@H](CS)NC(=O)[C@H](CO)NC(=O)CNC1=O
notes: also called CP1-S8C; cyclic peptide 9
B7: cyclic peptide 1 (CP1) (peptide)
peptide: {mClBz(4)}-LLIWIGSSKNPYILCG-NH2
modifications: thioether N-15
SMILES: CC[C@H](C)[C@@H]1NC(=O)[C@H](Cc2c[nH]c3ccccc23)NC(=O)[C@H]([C@@H](C)CC)NC(=O)[C@H](CC(C)C)NC(=O)[C@H](CC(C)C)NC(=O)c2cccc(c2)CSC[C@@H](C(=O)NCC(N)=O)NC(=O)[C@H](CC(C)C)NC(=O)[C@H]([C@@H](C)CC)NC(=O)[C@H](Cc2ccc(O)cc2)NC(=O)[C@@H]2CCCN2C(=O)[C@H](CC(N)=O)NC(=O)[C@H](CCCCN)NC(=O)[C@H](CO)NC(=O)[C@H](CO)NC(=O)CNC1=O
notes: Found by RaPID selection, then made by Fmoc-SPPS; also called lead cyclic peptide 1

Starred links: 1 amine or outer side, 2 acyl side, 3 side chain; linkers in the order of their positions; H or OH if unused. Positions of bridges follow the written chain, without caps; N, C: chain ends. Primed or numbered codes have the meaning given here. No end group written: not given here. *: point of attachment. mClBz(3) = 3-(chloromethyl)benzoic acid, non-amino acid initiator forming a thioether with the C-terminal-region Cys, O=C(c1cccc(C[*:3])c1)[*:2]; mClBz(4) = 3-(chloromethyl)benzoic acid initiator, its benzyl thioether with a Cys side chain closes the ring, O=C(c1cccc(C[*:3])c1)[*:2]; mClBz = N-terminal group cyclised as a benzyl thioether to a Cys, O=C(c1cccc(C[*:3])c1)[*:2]; C10F9 = S-aryl group from decafluorobiphenyl, Fc1c(F)c(F)c(-c2c(F)c(F)c(*)c(F)c2F)c(F)c1F; mBz = 3-(methylene)benzoyl on the N-terminal amine, O=C(c1cccc(C[*:3])c1)[*:2]; C6F5 = pentafluorophenyl group on the Cys sulfur, Fc1c(F)c(F)c(*)c(F)c1F; Bn = c1ccc(C*)cc1; Acm = CC(=O)NC*

A word on the Kd: it is the constant that tells how readily two partners part at equilibrium.

The target of the first assay is T1, biotinylated-Lys63 linked Di-Ub (UniProt P0CG47 1-76, isopeptide bond between the C-terminal Gly of the distal Ub and Lys63 of the proximal Ub; biotin tag at the N-terminus of the distal Ub).
T1 construct: mature; Immobilised on streptavidin plates or on the SPR CAPture chip; also called K63-linked Di-Ub; biotin-Lys63 linked Di-Ub
Put plainly: fluorescence-based competitive assay: unlabeled peptide, 5.0 molar equiv., pre-bound to biotinylated Lys63-linked Di-Ub on a streptavidin plate, then competed with CP1-FITC (1 equiv.); signal change relative to 1 (CP1), Y=[1-(a/b)]x100. The procedure:
Streptavidin-coated microplate (96 well plate) was washed with HEPES buffer (50 Mm HEPES, 150 Mm NaCl, pH 7.30) and then in each well incubated 1 μg of biotinylated-Lys63-linked Di-Ub in 100 μl of the same buffer at RT. for 30 min. Additional wells were kept without biotinylated-Lys63-Di-Ub for blank subtraction. After the washing step, peptide standard (CP1) and unlabeled peptides were incubated (5.0 molar equivalent relative to biotin-Lys63-linked Di-Ub) at RT for 30 minutes for saturation binding to the target. Then 1 molar equivalent of FITC labeled peptide-standard (CP1-FITC) relative to biotinylated-Lys63-linked Di-Ub was incubated to compete with unlabeled peptides at RT for 30 min. After releasing bounded peptides on treatment with 6 M Guanidinium chloride (Gnd·HCl), the fluorescence values were measured (λex=480 nm and λem=525 nm). These values were normalized and then calculated the relative change in binding with the following formula:
Y=[1−(a/b)]×100 [0289] Where Y=Signal change relative to the standard (CP1) (in terms of %). [0290] a=Measured signal value of each peptide candidate (in Relative Fluorescence Units). [0291] b=Measured signal value of standard peptide (CP1). The dissociation constant (KD) of fluorescein-labeled peptide (CP1-FITC) was calculated in accordance with the literature procedure (Vamisetti G B et al., 2021).
Consider mClBz-C(C10F9)LIWIGSSKNPYILCG (thioether N-15) [cyclic peptide 21, CP1-L1C-C10F9], for which the binding result was “binds”.

On to {mClBz(3)}-C(CH3)LIWIGSSKNPYILCG (bridge N-15; not fully specified (C-terminus, bridges)) [cyclic peptide 15, CP1-L1C-CH3], for which the binding result is reported as “binds”. {mClBz(3)}-C(CH2CONH2)LIWIGSSKNPYILCG (bridge N-15; not fully specified (C-terminus, bridges)) [cyclic peptide 17, CP1-L1C-CH2CONH2]: the binding result is listed as “binds”. As to B1, the binding result is “binds”. In the case of mClBz-C(C6F5)LIWIGSSKNPYILCG (thioether N-15) [cyclic peptide 20, CP1-L1C-C6F5], the binding result is “binds”.

With B2, the binding result is “binds”. On the same count and under the same terms, for {mClBz(3)}-C(Bn)LIWIGSSKNPYILCG (bridge N-15; not fully specified (C-terminus, bridges)) [cyclic peptide 16, CP1-L1C-CH2C6H5] the value was “binds”; for B3, “binds”. B4: the binding result is reported as “binds”.

On to B5, for which the binding result was “binds”.

On to {mClBz(3)}-C(CH2C10H7)LIWIGSSKNPYILCG (bridge N-15; not fully specified (C-terminus, bridges)) [cyclic peptide 18, CP1-L1C-CH2C10H7], for which the binding result was “binds”. In the case of B6, the binding result is listed as “binds”. The same measure, in the same setting: as for {mClBz(3)}-C(7‑methoxycoumarin‑4‑ylmethyl)LIWIGSSKNPYILCG (bridge N-15; not fully specified (C-terminus, bridges)) [cyclic peptide 19, CP1-L1C-CH2C10H7O3], the entry is “binds”; as for mClBz-CLIWIGSSKNPYILCG (bridge N-15; not fully specified (C-terminus, bridges), also called CP2) [cyclic peptide 2 (CP1-L1C)], “binds”.

The next assay deals with T1, biotinylated-Lys63 linked Di-Ub. In words: SPR (BIACORE T100), biotinylated Lys63 Di-Ub on a CAPture chip. The procedure:
The binding of cyclic peptide 1 (CP1) against the target, Lys63 linked Di-Ub was determined using BIACORE T100 instrument (GE Healthcare) equipped with a biotin CAPture kit series S chip. 50 mM HEPES (pH=7.30, 150 mM NaCl, 0.05% Tween 20, 2.0 mM DTT, 0.2% DMSO) was used as buffer. Biotinylated-Lys63 linked Di-Ub was loaded on the SPR chip. By using various concentrations of peptide.
B7 had a Kd of 16 nM.

The target in another assay is T2, Lys48-linked Di-Ub (UniProt P0CG47 1-76, isopeptide bond between the C-terminal Gly of one Ub and Lys48 of the other).
T2 construct: mature
Put plainly: fluorescence-based assay of relative binding on Lys48-linked Di-Ub, normalised to mJ08-L8W; the labelled competitor is not named [iv].
Take mClBz-CLIWIGSSKNPYILCG (bridge N-15; not fully specified (C-terminus, bridges), also called CP2) [cyclic peptide 2 (CP1-L1C)]: the binding result was “binds”.

A further assay addresses T3, Lys48-linked Tetra-Ub (UniProt P0CG47 1-76, isopeptide bonds between the C-terminal Gly and Lys48 of successive Ub units).
T3 construct: mature
In words: fluorescence-based assay of relative binding on Lys48-linked Tetra-Ub, normalised to Ub4_ix; the labelled competitor is not named [panel headed '(iv) Binding of 1 and 2 against Lys48 Tetra-Ub as a target' (v) of the legend].
On to mClBz-CLIWIGSSKNPYILCG (bridge N-15; not fully specified (C-terminus, bridges), also called CP2) [cyclic peptide 2 (CP1-L1C)], for which the binding result is listed as “binds”.

For the origin of these results see patent US20250099534A1 (TECHNION RESEARCH AND DEVELOPMENT FOUNDATION, published 2025).
